Substitutions are numbered along the chain they refer to. Each block holds one binder with its values, some of them ahead of it. Where no end group is shown, it is not given here. The star is where a group is joined. Biotin = O=C1N[C@H]2[C@H](CS[C@H]2CCCCC(=O)*)N1
Assays:
S34A = biological target: T1, S34A; assay: Biacore alanine scan, 25 °C, N-biotinylated fragment on SA chip, G1 Fab titrated; against the wild-type 25-37 fragment
T1 sequence (peptide, N-terminal biotin (p-0192)): NNFVPTNVGAKAF

K35A = biological target: T2, K35A; assay: as above
T2 sequence (peptide, N-terminal biotin (p-0192)): NNFVPTNVGSAAF

V32A = biological target: T3, V32A; assay: as above
T3 sequence (peptide, N-terminal biotin (p-0192)): NNFVPTNAGSKAF

G33A = biological target: T4, G33A (ends and bridges not checked); assay: as above
T4 peptide: Biotin-NNFVPTNVASKAF
Experimental: (§1) Interaction analysis was conducted at 25° C. on a Biacore 3000™ system equipped with streptavidin-coated (SA) sensor chips (Biacore AB, Uppsala, Sweden) using a standard Biacore running buffer (HBS-P). […] Each amino acid between position 27-37 was then mutated individually to alanine and expressed the fold loss in affinity compared to the wild-type fragment. […] Fab fragments were titrated over the chip using 1 μM as the top concentration of a two-fold dilution series. Association and dissociation phases were monitored at 100 μl/min for 1 minute and 5 minutes respectively. Surfaces were regenerated with a mixture of 35% ethanol+25mM NaOH+0.5M NaCl.

F37A = biological target: T5, F37A (ends and bridges not checked); assay: as above
T5 peptide: Biotin-NNFVPTNVGSKAA
Experimental: as §1

human α-CGRP [1] = biological target: T6, human α-CGRP (human, not fully specified; C-terminal amide (CONH2) as printed; N-biotinylated in the Biacore assays); assay: Biacore, ratio of KD at 25 C, reference rat α-CGRP
T6 construct: Full-length 37-residue peptide; also called α-Hu; α-human
T6 peptide: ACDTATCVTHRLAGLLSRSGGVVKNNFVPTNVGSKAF

rat β-CGRP = biological target: T7, rat β-CGRP (rat, not fully specified; C-terminal amide (CONH2) as printed; N-biotin on chip); assay: Biacore, N-biotin-CGRP on chip, 37 C
T7 construct: also called β-rat
T7 peptide: T6 peptide with A1S, D3N, N25D

rat α-CGRP [2] = biological target: T8, rat α-CGRP (rat, not fully specified; C-terminal amide (CONH2) as printed; N-biotinylated in the Biacore assays); assay: Biacore, N-biotin-CGRP on chip, 37 C
T8 construct: also called α-Rat; α-rat
T8 peptide: T6 peptide with A1S, D3N, N25D, K35E

human α-CGRP [3] = biological target: T6, human α-CGRP; assay: Biacore, N-biotin-CGRP on chip, 37 C
human β-CGRP = biological target: T9, human β-CGRP (human, not fully specified; C-terminal amide (CONH2) as printed; N-biotin on chip); assay: Biacore, N-biotin-CGRP on chip, 37 C
T9 construct: also called β-human
T9 peptide: T6 peptide with D3N, V22M, N25S

rat α-CGRP [4] = biological target: T8, rat α-CGRP; assay: Biacore, N-biotin-CGRP on chip, 25 C
human α-CGRP [5] = biological target: T6, human α-CGRP; assay: Biacore, N-biotin-CGRP on chip, 25 C

Fold loss in affinity (S34A): 10.9 fold
Fold loss in affinity (K35A): 8.1 fold
Fold loss in affinity (V32A): 6.1 fold
Fold loss in affinity (G33A): 504 fold
Fold loss in affinity (F37A): 339 fold
B1: Fab fragment of antibody G1 (Fab, V domains shown)
VH: EVQLVESGGGLVQPGGSLRLSCAASGFTFSNYWISWVRQAPGKGLEWVAEIRSESDASATHYAEAVKGRFTISRDNAKNSLYLQMNSLRAEDTAVYYCLAYFDYGLAIQNYWGQGTLVTVSS
VL: EIVLTQSPATLSLSPGERATLSCKASKRVTTYVSWYQQKPGQAPRLLIYGASNRYLGIPARFSGSGSGTDFTLTISSLEPEDFAVYYCSQSYNYPYTFGQGTKLEIK
notes: also called Purified Fab fragments of antibody G1

fold more potent than for rat α-CGRP (human α-CGRP [1]): 40 fold
T1/2 (rat β-CGRP): 2.45 h
T1/2 (rat α-CGRP [2]): 0.48 h
T1/2 (human α-CGRP [3]): 5.3 h
T1/2 (human β-CGRP): 2.76 h
T1/2 (rat α-CGRP [4]): 3.12 h
T1/2 (human α-CGRP [5]): 24.7 h
B2: antibody G1 (antibody, human IgG2, kappa, V domains shown)
VH: B1 VH
VL: EIVLTQSPATLSLSPGERATLSCKASKRVTTYVSWYQQKPGQAPRLLIYGASNRYLGIPARFSGSGSGTDFTLTISSLEPEDFAVYYCSQSYNYPYTFGQGTKLEIKR
notes: Humanized IgG2 delta-a monoclonal derived from muMAb7E9; heavy chain entry includes the modified IgG2 constant region; also called anti-CGRP antibody G1
